Binding result and Kd data for 4 molecules are collected here from publication PMC2555995 (The Journal of Biological Chemistry, 2008).

Changes are numbered by the printed parent chain. Names may count otherwise.

The target in experiment [1] is T1, His6-Nab2 (S. cerevisiae, UniProt P32505 1-525).
T1 sequence (looked up): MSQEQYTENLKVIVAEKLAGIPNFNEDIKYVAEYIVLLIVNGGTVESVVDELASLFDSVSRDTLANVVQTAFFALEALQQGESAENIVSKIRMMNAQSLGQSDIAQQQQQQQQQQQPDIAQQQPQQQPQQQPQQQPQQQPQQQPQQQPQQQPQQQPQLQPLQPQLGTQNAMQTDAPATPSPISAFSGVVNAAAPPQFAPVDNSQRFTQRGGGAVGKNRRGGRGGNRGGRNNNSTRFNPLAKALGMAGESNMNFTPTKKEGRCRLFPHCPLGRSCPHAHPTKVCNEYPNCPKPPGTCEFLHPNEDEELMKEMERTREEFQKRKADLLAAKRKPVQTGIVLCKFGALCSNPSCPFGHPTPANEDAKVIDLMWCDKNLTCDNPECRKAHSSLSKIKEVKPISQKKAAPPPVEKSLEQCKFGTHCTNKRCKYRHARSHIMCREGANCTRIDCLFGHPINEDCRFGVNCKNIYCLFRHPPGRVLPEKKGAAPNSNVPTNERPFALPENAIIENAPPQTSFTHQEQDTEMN
In words: pull-down.

Experiment [2] deals with His6-S-Tag-Mlp1-NBD (residues 1586–1768) (S. cerevisiae, UniProt Q02455 1586-1768). In words: ELISA.

B1: GST-CT-Mlp1 (residues 1490–1875) (domain or fragment, S. cerevisiae, UniProt Q02455 1490-1875, looked up)
chain: AQERLNQPSNINMEEIKKKWESEHEQEVSQKIREAEEALKKRIRLPTEEKINKIIERKKEELEKEFEEKVEERIKSMEQSGEIDVVLRKQLEAKVQEKQKELENEYNKKLQEELKDVPHSSHISDDERDKLRAEIESRLREEFNNELQAIKKKSFDEGKQQAMMKTTLLERKLAKMESQLSETKQSAESPPKSVNNVQNPLLGLPRKIEENSNSPFNPLLSGEKLLKLNSKSSSGGFNPFTSPSPNKHLQNDNDKRESLANKTDPPTHLEPSFNIPASRGLISSSSTLSTDTNDEELTSNNPAQKDSSNRNVQSEEDTEKKKEGEPVKRGEAIEEQTKSNKRPIDEVGELKNDEDDTTENINESKKIKTEDEEEKETDKVNDENSI
As for B1, in experiment [1], the binding result is “binds”.

B2: GST-Nab2-N-WT (residues 1–97) (domain or fragment, S. cerevisiae, UniProt P32505 1-97, looked up)
chain: MSQEQYTENLKVIVAEKLAGIPNFNEDIKYVAEYIVLLIVNGGTVESVVDELASLFDSVSRDTLANVVQTAFFALEALQQGESAENIVSKIRMMNAQ
For the molecule B2, the Kd in experiment [2] amounted to 1260 nM.

B3: GST-Nab2-N-F72D (residues 1–97) (domain or fragment, S. cerevisiae, UniProt P32505 1-97, looked up)
chain: B2 chain with F72D
Turning to B3, binding in experiment [2] was put at a Kd of 2310 nM.

B4: GST-Nab2-N-F73W (residues 1–97) (domain or fragment, S. cerevisiae, UniProt P32505 1-97, looked up)
chain: B2 chain with F73W
In experiment [2], B4 showed a Kd of 830 nM.
